Measurements as given in US8106168B2, “Metalloproteinase binding proteins” (Dyax Corp., priority 2005, dated 2012).

Key:
[1] = system: Human umbilical vascular endothelium cells (HUVECs); assay: HUVEC tube formation on […]; format: cell-based; conditions: 1 nM to 250 nM; 18 hours
Experimental: Human umbilical vascular endothelium cells (HUVECs) were seeded into […]™ basement membrane extract-coated 96 well plates at 20,000 or 40,000 cells in 100 μl/well. The seeded cells were incubated for 30 minutes, then the various test articles were added (vehicle control, M0038-F01 at concentrations ranging from 1 nM to 250 nM, or suramin 8 mg/ml). The cells were incubated at 37° for 18 hours. 100 μl of calcein solution (8 μg/ml) was added 20 minutes prior to image capture. Tube lengths were also quantified.

MDA-MB-435 GFP tumors = assay: MDA-MB-435 GFP orthotopic breast tumor growth; format: in vivo, mouse; conditions: for Tumor Mass (±SD): excised primary tumor
Excerpt: Fragments of MDA-MB-435 GFP (MDA-MB-435 cells expressing green fluorescent protein) tumors were transplanted by surgical orthotopic implantation (SOI) into the right second mammary gland. Treatment was started on day 15 after SOI when the volume of primary tumors reached about 85 mm^3.
Mice were sacrificed at day 61 after the start of the treatment and tumors (primary and metastases) were identified by fluorescent imaging. Additionally, primary tumors were excised and weighed. […] However, M0038-F01 was not effective in reducing lymph node or lung metastases in this experiment.

[2] = system: BT747 breast cancer tumor fragments; assay: BT747 breast tumor growth; format: in vivo, mouse; conditions: small initial tumor size groups; M0038-F01 10, 1 or 0.1 mg/kg Q2d IP; trastuzumab 20 mg/kg
Experimental: Fragments (approximately 1 mm^3) of BT747 breast cancer tumor fragments were implanted into the flanks of female HRLN CB.17 SCID mice. […] All groups were dosed by intraperitoneal (IP) injection. Tumor volume was measured biweekly.

MMP14 = target: T1, MMP14 (Mus musculus, UniProt P53690); assay: Immunohistochemical staining in acute phase SCW-induced arthritis; conditions: 7 days after first injection of SCW
T1 construct: from tissue; host or cells: knee joints of C57Bl6 mice with SCW-induced arthritis (synovial cells, chondrocytes, macrophages)
Experimental: Antigen-induced arthritis, a model of rheumatoid arthritis, was induced by intraarticular injection of Streptococcus cell wall (SCW, […]) into the knee joints of C57B16 mice at day 0, 7, 14 and 21.
MMP14 expression in acute phase SCW-induced arthritis (7 days after the first injection of SCW) was examined by immunohistochemical staining using M0038-F01.

MDA-MB-231-GFP tumors = assay: MDA-MB-231-GFP orthotopic breast tumor growth and metastasis
Experimental: Human breast cancer cells MDA-MB-231 cells transfected with green fluorescent protein (MDA-MB-231-GFP) were inoculated into the mammary fat pad of female BALB/c nu/nu mice with Matrigel. Animals were monitored for tumor growth, and at week 4-5 post tumor cell inoculation, animals with tumors of 30-50 mm^3 were selected, randomized and divided into experimental groups. […] Tumor volume was measured weekly, starting at week 5. Additionally, tissue samples of lung, liver, and spleen were taken to assess metastasis.
Animals were inoculated with MDA-MB-231-GFP cells as described above, then selected and randomized, and divided into experimental groups of 8 animals each. […] Tumor volume was measured weekly, starting at week 5.
Tumor tissue samples were collected on day 35 post-treatment for immunohistochemical analysis. Paraffin-embedded tissue samples were sectioned, stained with CD31 (Santa Cruz Biotechnology Inc., Santa Cruz, Calif., USA), Ki-67 (DAKO, Carpinteria, Calif., USA), MAPK, FAK, phosphoMAPK or phosphoFAK antibodies, visualized with biotinylated secondary antibodies using a VECTASTAIN® ABC (Vector Laboratories Inc., Burlingame, Calif., USA), and lightly counterstained with haemotoxylin.

[3] = immunostaining of tumor tissue, day 35

B1: M0038-F01: human antibody (Fab, IgG) that binds and inhibits MMP-14; HC SEQ ID NO: 156, LC SEQ ID NO: 157 (antibody, V domains shown)
VH: EVQLLESGGGLVQPGGSLRLSCAASGFTFSLYSMNWVRQAPGKGLEWVSSIYSSGGSTLYADSVKGRFTISRDNSKNTLYLQMNSLRAEDTAVYYCARGRAFDIWGQGTMVTVSS
VL: QDIQMTQSPSSLSAFVGDKVTITCRASQSVGTYLNWYQQKAGKAPELLIYATSNLRSGVPSRFSGSGSGTDFTLTINTLQPEDFATYYCQQSYSIPRFTFGPGTKVDIK
modifications: Synthetically generated peptide
tube formation [1]: dose-dependently inhibits tube formation | Tumor Mass (±SD) (MDA-MB-435 GFP tumors; 0.1 mg/kg Q2d IP, day 61): 1.54 ± 0.91 | Tumor Mass (±SD) (MDA-MB-435 GFP tumors; 1 mg/kg Q2d IP, day 61, * p≦0.05 compared to Control): 0.86 ± 0.21* | Tumor Mass (±SD) (MDA-MB-435 GFP tumors; 10 mg/kg (F01 and A2 Q2d IP; taxotere QW×3 i.v.), day 61, * p≦0.05 compared to Control): 0.82 ± 0.35* | tumor volume (MDA-MB-435 GFP tumors; M0038-F01 1 or 10 mg/kg Q2d IP, taxotere 10 mg/kg QW×3 i.v.): reduction of tumor volume | lymph node or lung metastases (MDA-MB-435 GFP tumors; fluorescent imaging, day 61): not effective | tumor growth [2]: inhibition of tumor growth | immunohistochemical staining of joint tissue (MMP14): strongly stained synovial cells and chondrocytes, as well as macrophages in joint exudate | metastases to spleen (MDA-MB-231-GFP tumors; M0038-F01 10 mg/kg Q2d IP, DOX 5 mg/kg weekly IP): reduced in DOX and M0038-F01 treated animals, but the difference was not statistically significant | lung and liver metastases (MDA-MB-231-GFP tumors; M0038-F01 10 mg/kg Q2d IP, DOX 5 mg/kg weekly IP, compared to controls): statistically significant reduction | tumor growth (tumor volume), dose-ranging experiment (MDA-MB-231-GFP tumors; M0038-F01 0.1, 1 or 10 mg/kg Q2d IP for 5 weeks, A2 10 mg/kg): reduced in all M0038-F01 treated animals, with the 10 mg/kg dose being most effective, followed by the 1 mg/kg and 0.1 mg/kg doses | tumor growth (tumor volume) (MDA-MB-231-GFP tumors; M0038-F01 or A2 10 mg/kg Q2d IP, DOX 5 mg/kg weekly IP, five weeks): substantially inhibited | CD31 and KI67 levels compared to vehicle and A2 controls (MDA-MB-231-GFP tumors; [3]): statistically significant (p<0.05) reductions | phospho-FAK level (MDA-MB-231-GFP tumors; [3]): 4±1.2 A.U. | phospho-MAP kinase level (MDA-MB-231-GFP tumors; [3]): 2.4±0.7 A.U. | total MAP kinase and FAK levels (MDA-MB-231-GFP tumors; immunostaining of tumor tissue, day 35, versus control tumors): essentially the same as in control tumors | Ki67 (MDA-MB-231-GFP tumors; immunostaining of tumor tissue, day 35 post-treatment, image analysis): 2.4 ± 1.2
